Experimental data as given in publication PMC11974786 (bioRxiv, 2025).

What was measured:
KpOptS = target: T1, KpOptS (Klebsiella pneumoniae, UniProt A0A2G9LI54); test: HPLC and LC-MS product analysis; assay type: biochemical; settings: 100 μM OptS, 1 mM MnCl2, 10 mM MgSO4, pH 7.4, 100 mM NaCl
T1 sequence (A0A2G9LI54 1-119): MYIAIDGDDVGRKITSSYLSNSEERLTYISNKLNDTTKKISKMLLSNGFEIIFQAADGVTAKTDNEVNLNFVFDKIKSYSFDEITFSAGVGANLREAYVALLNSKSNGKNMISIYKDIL

[1] = target: OptS from Klebsiella pneumoniae strain KP67 (Klebsiella pneumoniae strain KP67); test: crystal structure
[2] = target: OptS from Klebsiella pneumoniae strain KP67 (Klebsiella pneumoniae strain KP67); test: SEC
[3] = target: OptS from Klebsiella pneumoniae strain KP67 (Klebsiella pneumoniae strain KP67); test: SEC; remark: listed apart in the source

Compound: Nc1ncnc2c1ncn2[C@@H]1O[C@H](COP(=O)(O)OP(=O)(O)OP(=O)(O)O)[C@@H](O)[C@H]1O [ATP]
- HPLC and LC-MS product analysis (KpOptS): The largest abundance product observed was derived from ATP

Compound: OptS from Klebsiella pneumoniae strain KP67 (enzyme)
- stoichiometry N [1]: 4
- stoichiometry N [2]: 4
- stoichiometry N [3]: > 3
